Laboratory results as given in patent publication US20220281997A1 (NANJING GENSCRIPT BIOTECH, published 2022).

What was measured:
[1] = target: T1, His-tag camel-derived nanobody AS718 VHH-His (camel-derived); assay: indirect ELISA, AS718 VHH-His coated, hybridoma supernatant
T1 construct: Immunogen; recombinantly expressed with a C-terminal His tag; also called immunogen AS718; immunogen AS718 VHH-His; not shown: C-terminal His tag
Method: The rabbit spleen was extracted and homogenized to produce a single-cell suspension, and a single-cell suspension of myeloma cells was prepared at the same time. 1.0×10⁸ splenocytes were fused with 1.2×10⁵ myeloma cells by electrofusion; the fused cells were resuspended in 100 ml of DMEM/10% FBS culture medium containing hybridoma selective agents, thymidine, hypoxanthine and aminopterin, and transferred to a 150×96-well plate in a volume of 100 μl with a pipette; and the plate was incubated at 37° C. in 6% CO₂. After 9 days of incubation, the indirect ELISA was used to evaluate the binding ability of the antibody in the supernatant to VHH-His, indicating the presence of the antibody to VHH-His.
The ELISA plate was coated with 100 μl/well of 0.5 μg/ml VHH-His or His protein in PBS at 4° C. overnight; the plate was washed with PBS-T (0.05% Tween20) and blocked with 200 μl/well of PBST containing 1% BSA at 37° C. for 0.5 hours; the blocking solution was aspirated and discarded, and 100 μl of hybridoma cell culture supernatant was added to each well and then incubated at room temperature for 1 hour; after the incubation, the supernatant was discarded, and the plate was washed three times with PBST and incubated with 100 μl/well of goat anti-rabbit IgG conjugated with horseradish peroxidase (GenScript Goat Anti-Rabbit IgG Antibody (H&L) [HRP], pAb; CAT #: A00098) at 37° C. for 0.5 hours; the plate was washed five times with PBST, and then a TMB color developing solution was added; and the plate was incubated in the dark at room temperature for 15 minutes. The reaction was stopped by adding 50 μl of 1 M HCl stop solution. The plate was read at 450 nm using a microplate reader. In FIG. 3, by the mode of indirect ELISA, immunogen AS718 VHH-His was used to coat the ELISA detection plate, and the titers of the supernatant stock solutions of 15 parent clones were detected by OD450 reading, and the cross-reactions thereof with the His-tag protein were detected at the same time to exclude non-specific combinations. In the experiment, the positive serum was used as a positive control for immunogen AS718 VHH-His, and the Anti-His antibody was used as a positive control for detection target His-tag protein in the reverse screening. The detection value greater than 0.5 was determined to be positive, and the detection value less than 0.2 was determined to be negative.

AS588 VHH = target: T2, AS588 VHH (camel-derived); assay: indirect ELISA, VHH coated
T2 construct: One of the 10 different camel-derived nanobodies; not shown: His tag (VHH-His)
Method: (§1) The ELISA plate was coated with 10 different VHHs at […] in 100 μl/well of PBS at 4° C. overnight, respectively; the plate was washed with PBS-T (0.05% Tween) and blocked with 200 μl/well of PBST containing 1% BSA at 37° C. for 0.5 hours; the blocking solution was aspirated and discarded, and 100 μl of 1 μg/ml purified antibodies were added to the first well, diluted in a 3-fold gradient for a total of 11 test concentration gradients and incubated at room temperature for 1 hour; the plate was washed three times with PBST and incubated with 100 μl/well of goat anti-rabbit IgG conjugated with horseradish peroxidase (GenScript Goat Anti-Rabbit IgG Antibody (H&L) [HRP], pAb; CAT #: A00098) at 37° C. for 0.5 hours; the plate was washed five times with PBST, and then a TMB color developing solution was added; and the plate was incubated in the dark at room temperature for 15 minutes. The reaction was stopped by adding 50 μl of 1 M HCl stop solution. The plate was read at 450 nm using a microplate reader; and the binding abilities of 15 clones to VHH-His were obtained (as shown in FIGS. 6a and 6b). […] On one hand, the affinities of the antibody of the same camel-derived nanobody to different camel-derived nanobodies were different; on the other hand, the affinities of different antibodies of camel-derived nanobodies to the same camel-derived nanobody were different. However, on the whole, all the 15 purified antibodies can be recognized with 10 different camel-derived nanobodies.

AS673 VHH = target: T3, AS673 VHH (camel-derived); assay: indirect ELISA, VHH coated
T3 construct: One of the 10 different camel-derived nanobodies; not shown: His tag (VHH-His)
Method: as §1

AS587 VHH = target: T4, AS587 VHH (camel-derived); assay: indirect ELISA, VHH coated
T4 construct: One of the 10 different camel-derived nanobodies; not shown: His tag (VHH-His)
Method: as §1

AS656 VHH = target: T5, AS656 VHH (camel-derived); assay: indirect ELISA, VHH coated
T5 construct: One of the 10 different camel-derived nanobodies; not shown: His tag (VHH-His)
Method: as §1

AS325 VHH = target: T6, AS325 VHH (camel-derived); assay: indirect ELISA, VHH coated
T6 construct: One of the 10 different camel-derived nanobodies; not shown: His tag (VHH-His)
Method: as §1

AS200 VHH [2] = target: T7, AS200 VHH (camel-derived); assay: indirect ELISA, VHH coated
T7 construct: One of the 10 different camel-derived nanobodies; not shown: His tag (VHH-His)
Method: as §1

AS519 VHH = target: T8, AS519 VHH (camel-derived); assay: indirect ELISA, VHH coated
T8 construct: One of the 10 different camel-derived nanobodies; not shown: His tag (VHH-His)
Method: as §1

AS675 VHH [3] = target: T9, AS675 VHH (camel-derived); assay: indirect ELISA, VHH coated
T9 construct: One of the 10 different camel-derived nanobodies; not shown: His tag (VHH-His)
Method: as §1

AS988 VHH = target: T10, AS988 VHH (camel-derived); assay: indirect ELISA, VHH coated
T10 construct: One of the 10 different camel-derived nanobodies; not shown: His tag (VHH-His)
Method: as §1

AS154 VHH [4] = target: T11, AS154 VHH (camel-derived); assay: indirect ELISA, VHH coated
T11 construct: One of the 10 different camel-derived nanobodies; not shown: His tag (VHH-His)
Method: as §1

AS200 VHH [5] = target: T7, AS200 VHH; assay: SPR, Biacore 8K; VHH-His captured on anti-His antibody chip
Description: (§2) The camel-derived nanobody with the lowest affinity to the cloned antibody was AS587, and the affinity reached 2.2 nmol.

AS675 VHH [6] = target: T9, AS675 VHH; assay: as above
Description: as §2

AS154 VHH [7] = target: T11, AS154 VHH; assay: as above
Description: as §2

Measured: binding result

T2 sequence (VHH, as listed by the source): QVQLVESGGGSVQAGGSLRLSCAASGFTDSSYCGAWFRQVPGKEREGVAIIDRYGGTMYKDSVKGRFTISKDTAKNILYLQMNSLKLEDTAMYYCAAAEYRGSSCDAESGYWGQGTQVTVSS
T11 sequence (VHH, as listed by the source): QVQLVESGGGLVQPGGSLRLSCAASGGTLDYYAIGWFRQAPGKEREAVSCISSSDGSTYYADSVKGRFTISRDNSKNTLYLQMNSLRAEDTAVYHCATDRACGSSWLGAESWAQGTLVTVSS
T1 sequence (VHH, as listed by the source): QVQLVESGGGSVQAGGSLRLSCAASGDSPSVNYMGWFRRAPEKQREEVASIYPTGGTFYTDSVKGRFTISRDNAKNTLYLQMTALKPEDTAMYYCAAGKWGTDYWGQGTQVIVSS
T3 sequence (VHH, as listed by the source): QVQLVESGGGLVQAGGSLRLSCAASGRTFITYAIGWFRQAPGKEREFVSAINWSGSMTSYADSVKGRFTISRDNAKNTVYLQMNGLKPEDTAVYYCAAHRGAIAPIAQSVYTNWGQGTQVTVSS
T9 sequence (VHH, as listed by the source): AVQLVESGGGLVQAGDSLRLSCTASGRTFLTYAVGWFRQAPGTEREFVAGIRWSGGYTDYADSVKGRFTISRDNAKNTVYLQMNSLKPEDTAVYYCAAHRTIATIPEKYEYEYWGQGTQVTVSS
T10 sequence (VHH, as listed by the source): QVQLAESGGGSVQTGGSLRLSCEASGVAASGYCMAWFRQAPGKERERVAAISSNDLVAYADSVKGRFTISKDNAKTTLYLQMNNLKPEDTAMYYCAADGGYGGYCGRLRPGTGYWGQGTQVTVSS
T4 sequence (VHH, as listed by the source): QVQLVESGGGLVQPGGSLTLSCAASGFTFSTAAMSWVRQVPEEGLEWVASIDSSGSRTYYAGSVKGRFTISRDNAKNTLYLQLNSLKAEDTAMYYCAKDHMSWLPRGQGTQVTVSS
T8 sequence (VHH, as listed by the source): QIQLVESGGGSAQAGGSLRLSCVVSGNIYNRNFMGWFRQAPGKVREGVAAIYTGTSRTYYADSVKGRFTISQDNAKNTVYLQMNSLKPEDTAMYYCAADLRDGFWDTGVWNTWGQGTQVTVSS
T7 sequence (VHH, as listed by the source): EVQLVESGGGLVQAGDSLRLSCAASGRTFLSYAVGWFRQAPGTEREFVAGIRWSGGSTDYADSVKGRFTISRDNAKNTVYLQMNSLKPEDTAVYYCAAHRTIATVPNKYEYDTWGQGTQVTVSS
T5 sequence (VHH, as listed by the source): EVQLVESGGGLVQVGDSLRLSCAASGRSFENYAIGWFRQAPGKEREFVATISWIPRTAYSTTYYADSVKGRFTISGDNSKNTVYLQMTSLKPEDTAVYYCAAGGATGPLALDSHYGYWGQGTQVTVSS
T6 sequence (VHH, as listed by the source): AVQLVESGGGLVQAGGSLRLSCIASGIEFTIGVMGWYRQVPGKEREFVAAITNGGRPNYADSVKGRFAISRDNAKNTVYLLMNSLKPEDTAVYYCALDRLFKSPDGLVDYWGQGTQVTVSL

B1: R166.E3 (antibody, V domains shown)
VH: QSLEESGGRLVTPGTPLTLTCTVSGIDLSSCVLIWVRQAPEKGLEWIGFIYGSGNAYYANWAKGRFTISKTSSTTVDLKITSPTTEDTATYFCARSQEDDSFGYGFNLWGQGTLVTVSS
VL: AYDMTQTPASVEVAVGGTVTINCQASQSIGTYLSWYQQKPGQPPKLLIYRASTLTSGVSSRFKGSGSGTQFTLTISGVECADAATYYCQEGYSDINVNNIFGGGTEVVVKG
notes: Rabbit monoclonal; also called clone R166.E3
not listed: AS200 VHH [5] | AS675 VHH [6] | AS154 VHH [7]
binds: all other assays above

B2: R166.A5 (antibody, V domains shown)
VH: QSVEESGGRLVTPGTPLTLTCTVSGFSLNNYTVIWVRQAPGKGLEWIGIIFGSGGTYYATWAEGRFTISRTSTTVDLKMTSPTTEDTATYFCARGYFGNTFWAMDPWGPGTLVTVSS
VL: NIVMTQTPASVSGAVGGTVTIKCQASQSISTYLSWYQQKPGQPPKLLIYQASELAYGVSSRFKGSGSGTEFTLTISGVECADAATYYCQQGYSDINVDNFFGGGTEVVVKG
notes: Rabbit monoclonal; also called clone R166.A5; antibody clone R166.A5
not listed: AS200 VHH [5] | AS675 VHH [6] | AS154 VHH [7]
binds: all other assays above

B3: R166.G3 (antibody, V domains shown)
VH: QSVEESGGRLVTPGTPLTLTCTVSGIDLSRYAMGWVRQAPGKGLEYIGIIGYGGNTNYANWAKGRFTISKTSSTTVDLKMTSPTTEDTATYFCARDNKSGGNNGYPYYGLDLWGPGTLVTVSS
VL: AYDMTQTPASVEVPVGGTVTINCQASQSISSHLAWYQQKRGQPPKVLIYYASTLASGVSSRFKGSGSGTEYTLTISGVECADAATYFCHQSYSGSDVDNTFGGGTEVVVRG
notes: Rabbit monoclonal; also called clone R166.G3
not listed: AS200 VHH [5] | AS675 VHH [6] | AS154 VHH [7]
binds: all other assays above

B4: R166.E5 (antibody, V domains shown)
VH: QSLEESGGRLVTPGTPLTLTCTASGFSLSGYYMIWVRQAPGKGLEYIGIVTSSGSTHYASWANGRFAISKTSSTTVDLKMPSLTTEDTATYFCAREGGWAFDLWGQGTLVTVSS
VL: QVLTQTPFSVSTAVGGTVTINCQSSESVANSNWLSWYQQKPGQPPKLLIYWASKLASGVPSRFSGSGSGTQFTLTISGVQCADAATYYCQGGYTSDRRAFGGGTEVVVKG
notes: Rabbit monoclonal; also called clone R166.E5
not listed: AS200 VHH [5] | AS675 VHH [6] | AS154 VHH [7]
binds: all other assays above

B5: R166.H9 (antibody, V domains shown)
VH: QSLEESGGRLVTPGTPLTLTCTASGFSLNNYNMIWVRQAPGEGLEWIGMIGDGDDAAWYASWAKGRFTISKTSTTVDLEVTSLTTEDTAIYFCARYLSFTRLDLWGQGTLVTVSS
VL: AVLTQTPSPVSAAVGGTVTINCQSSQSVYHNNWLAWYQQKPGQPPKLLIYGAATLASGVPSRFKGSGSGTQFTFTITDVQCDDVGTYYCAGVYNDDSENAFGGGTEVVVKG
notes: Rabbit monoclonal; also called clone R166.H9
not listed: AS200 VHH [5] | AS675 VHH [6] | AS154 VHH [7]
binds: all other assays above

B6: R166.H10 (antibody, V domains shown)
VH: QSLEESGGRLVTPGTPLTLTCTASGFSLSSYWMSWVRQAPGKGLEYIGIISGSGSTYYATWAKGRFTISKTSSTTVDLKITSPTTEDTATYFCARGNPHYSFGFNIWGPGTLVTVSL
VL: DIVMTQTPASVSEPVGGTVTINCQASESIYSWLSWYQQKPGQPPKLLIYSASYLASGVPSQFRGSGSGTEYTLTISDLECADAATYYCQYNYDSGDGITNGFGGGTEVVVKG
notes: Rabbit monoclonal; also called clone R166.H10
not listed: AS200 VHH [5] | AS675 VHH [6] | AS154 VHH [7]
binds: all other assays above

B7: R166.C5 (antibody, V domains shown)
VH: QSVEESGGRLVTPGTPLTLTCTVSGFSLRNFAMSWVRQAPGKGLEWIGIIYSGGTRDYATWAKGRFTISKTSTTVDLKMTSPTTEDTATYFCARDRSPDYSAAFLLWGQGTLVTVSS
VL: IVMTQTPSSKSVPVGDTVTINCQASESVYSNNHLAWFQQKPGQPPKLLIYSASTLESGVPSRFKGSGSGTQFTLTISGVQCDDAATYYCAGYKSSDTDGTSFGGGTEVVVKG
notes: Rabbit monoclonal; also called clone R166.C5; antibody clone R166.C5
binds: AS200 VHH [5] | AS675 VHH [6] | AS154 VHH [7]
